From patent EP4806514A2 (Lepu Biopharma Co., Ltd., dated 2025)

Biological target: T1, human CDH10-his protein (Acro bio, Cat. No. CA0-H52H5) (human, UniProt Q9Y6N8 55-613)
T1 construct: Bought; also called human CDH10 protein
T1 sequence (looked up): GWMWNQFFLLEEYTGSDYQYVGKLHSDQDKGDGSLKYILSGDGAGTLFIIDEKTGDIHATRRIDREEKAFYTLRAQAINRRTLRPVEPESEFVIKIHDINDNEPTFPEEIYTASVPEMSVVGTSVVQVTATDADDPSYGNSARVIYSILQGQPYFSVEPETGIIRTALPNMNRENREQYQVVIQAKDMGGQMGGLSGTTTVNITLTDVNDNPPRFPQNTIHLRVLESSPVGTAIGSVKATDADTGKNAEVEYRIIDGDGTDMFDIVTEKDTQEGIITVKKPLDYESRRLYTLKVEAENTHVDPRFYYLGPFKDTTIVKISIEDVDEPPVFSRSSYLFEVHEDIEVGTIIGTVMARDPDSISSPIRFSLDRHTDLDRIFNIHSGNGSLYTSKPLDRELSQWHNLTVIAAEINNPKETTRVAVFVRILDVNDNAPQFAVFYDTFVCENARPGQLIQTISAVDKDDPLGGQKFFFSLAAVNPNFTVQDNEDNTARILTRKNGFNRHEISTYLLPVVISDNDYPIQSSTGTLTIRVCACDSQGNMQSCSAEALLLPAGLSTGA
Assay: ELISA, antigen coated at 1 ug/mL

binding result: no binding (tested: titrated from 50 nM)
B1: 29H8D3-z12 (antibody, V domains shown)
VH: QVQLVQSGAEVKKPGASVKVSCKASGYTFTDHTIHWMRQRPGQGLEWIGYIYPRDGYTKYNEKFKDRATLTADTSTSTAYMELRSLRSDDTAVYYCARFYYGYWYFDVWGQGTTVTVSS
VL: DIVMTQSPLSLPVTPGEPASISCRSSKSLLRSNGNTYLYWFLQKPGQSPQVLIYRMSNLASGVPDRFSGSGSGTDFTLKISRVEAEDVGVYYCMQHLEYPFTFGQGTKLEIK
notes: Humanized, human IgG1 constant region; also called 29H8D3-z12 mAb
